From paper PMC8354229 come the findings set out here.

In assay [1] the target is HIV-1 Vpr (WT), expressed from pNL4-3unc (UniProt P12520). Kind of assay: immunoblot of virions (Vpr incorporation, Vpr/CA ratio, LI-COR quantification). To be noted: equivalent RT units of virus concentrated by ultracentrifugation through a sucrose cushion; parent: est. 100; read off a plot.
For assay [2], the target named is HIV-1 Gag p6 Mutant 12 (alanine substitutions in the LXXLF motif) (HIV-1 (NL4-3-based proviral plasmid)) (UniProt P12493). Kind of assay: virion incorporation (virions pelleted through sucrose, immunoblot); virus from 293T cells transfected with pNL4-3unc proviral plasmids (Gag and Vpr from the same construct); concentrated through a 20% (w/v) sucrose cushion, 2 h, 10,000 g, 4°C; equivalent RT units on SDS-PAGE; anti-Vpr and anti-CA immunoblot; Vpr/CA ratio relative to WT virions (LI-COR). On the technique in general: A western blot detects proteins with antibodies after separation by electrophoresis.

Assay [3] deals with HIV-1 Gag p6 Mutant 4 (FRFG to alanines) (HIV-1 (NL4-3-based proviral plasmid)) (UniProt P12493). The description is as above.
In assay [4] the target is HIV-1 Gag p6 Mutant 11 (LXXL to alanines) (HIV-1 (NL4-3-based proviral plasmid)) (UniProt P12493). The assay is described as above.
The target in assay [5] is HIV-1 Gag with WT p6, expressed from pNL4-3unc (HIV-1 (NL4-3-based proviral plasmid)) (UniProt P12493). The assay is described as above.
In assay [6] the target is T1, HIV-1 Vpr (WT), expressed from pNL4-3unc (HIV-1 (NL4-3-based proviral plasmid)), P12520.
T1 chain: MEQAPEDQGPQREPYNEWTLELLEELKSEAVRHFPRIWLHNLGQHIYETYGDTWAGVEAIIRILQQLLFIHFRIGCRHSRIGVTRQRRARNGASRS
The assay is described as follows: cross-linking; virions pelleted through sucrose, 1% formaldehyde in PBS 20 min at room temperature, quenched with 250 mM Tris-HCl pH 7.5, pelleted again through sucrose, SDS-PAGE and anti-Vpr immunoblot. Conditions: remark: other sources report otherwise.

Several values for one entry are separate records, joined by “and”; a condition that tells them apart may be missing. Identical values can stand only once. Where only a bound is given, the exact number is not on record here.

Turning to “HIV-1 Gag with WT p6, expressed from pNL4-3unc (from UniProt P12493) E19A; E20A; T21A; T22A”, in assay [1], the percent of parent turned out to be 52 % WT.
“HIV-1 Gag with WT p6, expressed from pNL4-3unc (from UniProt P12493) E34A; L35A; Y36A”: the percent of parent in assay [1] turned out to be 73 % WT.
As for “HIV-1 Gag with WT p6, expressed from pNL4-3unc (from UniProt P12493) I31A; D32A; K33A”, in assay [1], the percent of parent came out at 90 % WT.
Same read-out and setting: the same measure for “HIV-1 Gag with WT p6, expressed from pNL4-3unc (from UniProt P12493) K27A; Q28A; E29A; P30A”: 93 % WT.
For the molecule “HIV-1 Gag with WT p6, expressed from pNL4-3unc (from UniProt P12493) P11A; E12A; E13A; S14A”, the percent of parent in assay [1] was found to be 62 % WT.
Take “HIV-1 Gag with WT p6, expressed from pNL4-3unc (from UniProt P12493) P37A; L38A; S40A”: in assay [1], the percent of parent came out at 62 % WT.
In the case of “HIV-1 Gag with WT p6, expressed from pNL4-3unc (from UniProt P12493) P49A; S50A; S51A; Q52A”, the percent of parent in assay [1] was 76 % WT.
Still for that read-out and setting: the same measure for “HIV-1 Gag with WT p6, expressed from pNL4-3unc (from UniProt P12493) R4A; P5A; E6A”: 85 % WT; for “HIV-1 Gag with WT p6, expressed from pNL4-3unc (from UniProt P12493) T23A; P24A; S25A; Q26A”: 59 % WT.
For the molecule “HIV-1 Vpr (WT), expressed from pNL4-3unc (from UniProt P12520 1-96) (natural protein)”, the Vpr incorporated, % of WT virions (Vpr/CA ratio) in assay [2], in assay [3] and in assay [4] was less than 30% each time.
As to “HIV-1 Vpr L67A (from UniProt P12520 1-96) (natural protein)”, the fold lower Vpr packaging than the same p6 mutant with WT Vpr in assay [3] and in assay [4] was greater than 10 fold throughout. Also, in assay [5], the fold reduction of Vpr incorporation against WT Vpr came out at 2 fold.

B1: HIV-1 Vpr (WT), expressed from pNL4-3unc, P12520 1-96 (natural protein)
chain: MEQAPEDQGPQREPYNEWTLELLEELKSEAVRHFPRIWLHNLGQHIYETYGDTWAGVEAIIRILQQLLFIHFRIGCRHSRIGVTRQRRARNGASRS
As to B1, in assay [6], the stoichiometry N – broadly, a count of units in the complex or per binding partner – was 2 and 3.
